Assay results taken from patent US20200055920A1 (published 2020).

Legend:
Experiment in all cases: Biacore SPR; receptor-Fc captured by anti-Fc antibody, ligand injected
Activin A = target: T1, Activin A (UniProt P08476 311-426)
T1 construct: also called βAβA
T1 sequence (looked up): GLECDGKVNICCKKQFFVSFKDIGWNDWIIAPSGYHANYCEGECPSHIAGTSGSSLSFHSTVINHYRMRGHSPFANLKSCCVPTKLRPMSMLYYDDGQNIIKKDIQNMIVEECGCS
Procedure: (§1) Ligands were injected and allowed to flow over the captured receptor protein.

Activin B = target: T2, Activin B (UniProt P09529 293-407)
T2 construct: also called βBβB
T2 sequence (looked up): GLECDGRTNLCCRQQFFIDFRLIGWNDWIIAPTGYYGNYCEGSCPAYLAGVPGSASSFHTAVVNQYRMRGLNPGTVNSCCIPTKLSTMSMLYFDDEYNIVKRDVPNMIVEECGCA
Procedure: as §1

Activin AB = target: T3, Activin AB (UniProt P08476 311-426; P09529 293-407)
T3 construct: also called βAβB
T3 sequence (looked up) 1: T1 sequence (looked up)
T3 sequence (looked up) 2: T2 sequence (looked up)
Procedure: as §1

Activin AC = target: T4, Activin AC (UniProt P08476 311-426; P55103 237-352)
T4 sequence (looked up) 1: T1 sequence (looked up)
T4 sequence (looked up) 2: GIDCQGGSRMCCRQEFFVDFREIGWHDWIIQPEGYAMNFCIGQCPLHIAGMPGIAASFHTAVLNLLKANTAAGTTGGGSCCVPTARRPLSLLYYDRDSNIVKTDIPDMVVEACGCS
Procedure: as §1

BMP2 = BMP2 (UniProt P12643 283-396)
Procedure: as §1

BMP4 = target: T5, BMP4 (UniProt P12644 293-408)
T5 sequence (looked up): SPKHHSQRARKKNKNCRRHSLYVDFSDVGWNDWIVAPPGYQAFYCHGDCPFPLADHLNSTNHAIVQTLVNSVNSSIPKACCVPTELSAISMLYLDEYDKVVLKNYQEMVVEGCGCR
Procedure: as §1

BMP5 = target: T6, BMP5 (UniProt P22003 317-454, limits assumed)
T6 sequence (looked up): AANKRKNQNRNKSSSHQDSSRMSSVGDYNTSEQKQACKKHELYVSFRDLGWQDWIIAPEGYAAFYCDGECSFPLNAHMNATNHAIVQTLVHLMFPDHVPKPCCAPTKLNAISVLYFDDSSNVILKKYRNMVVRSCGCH
Procedure: as §1

BMP6 = target: T7, BMP6 (UniProt P22004 382-513, limits assumed)
T7 sequence (looked up): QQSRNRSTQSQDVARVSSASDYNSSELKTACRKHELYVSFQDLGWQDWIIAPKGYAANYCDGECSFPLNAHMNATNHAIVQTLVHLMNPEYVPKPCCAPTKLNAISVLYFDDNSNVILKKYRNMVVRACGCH
Procedure: as §1

BMP7 = target: T8, BMP7 (UniProt P18075 293-431)
T8 construct: also called osteogenic protein-1; OP-1
T8 sequence (looked up): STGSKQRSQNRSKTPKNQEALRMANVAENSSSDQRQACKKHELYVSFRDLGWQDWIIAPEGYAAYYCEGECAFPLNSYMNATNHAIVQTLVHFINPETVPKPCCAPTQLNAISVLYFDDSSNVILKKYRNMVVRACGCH
Procedure: as §1

BMP10 = target: T9, BMP10 (UniProt O95393 317-424)
T9 sequence (looked up): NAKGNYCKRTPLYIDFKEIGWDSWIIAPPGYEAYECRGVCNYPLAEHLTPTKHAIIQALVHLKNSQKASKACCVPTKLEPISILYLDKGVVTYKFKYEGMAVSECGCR
Procedure: as §1

GDF5 = target: T10, GDF5 (UniProt P43026 382-501, limits assumed)
T10 construct: also called BMP14
T10 sequence (looked up): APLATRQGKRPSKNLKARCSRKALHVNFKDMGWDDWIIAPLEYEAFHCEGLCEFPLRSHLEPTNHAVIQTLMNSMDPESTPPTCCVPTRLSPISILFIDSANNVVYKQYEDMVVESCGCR
Procedure: as §1

GDF6 = target: T11, GDF6 (UniProt Q6KF10 336-455, limits assumed)
T11 construct: also called BMP13
T11 sequence (looked up): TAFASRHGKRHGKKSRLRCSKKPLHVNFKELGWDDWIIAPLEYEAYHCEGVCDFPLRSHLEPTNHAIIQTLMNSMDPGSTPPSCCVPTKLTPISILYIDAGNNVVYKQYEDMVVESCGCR
Procedure: as §1

GDF7 = target: T12, GDF7 (UniProt Q7Z4P5 322-450, limits assumed)
T12 construct: also called BMP12
T12 sequence (looked up): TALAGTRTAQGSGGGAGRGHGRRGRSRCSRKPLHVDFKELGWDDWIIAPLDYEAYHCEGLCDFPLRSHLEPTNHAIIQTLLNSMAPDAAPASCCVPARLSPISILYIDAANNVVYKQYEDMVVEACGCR
Procedure: as §1

GDF8 = target: T13, GDF8 (UniProt O14793 267-375)
T13 construct: also called myostatin; growth and differentiation factor-8
T13 sequence (looked up): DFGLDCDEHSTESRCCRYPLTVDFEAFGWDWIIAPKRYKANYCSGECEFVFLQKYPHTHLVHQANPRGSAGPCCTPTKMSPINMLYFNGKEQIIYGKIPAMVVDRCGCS
Procedure: as §1

GDF11 = target: T14, GDF11 (UniProt O95390 299-407)
T14 construct: also called BMP11
T14 sequence (looked up): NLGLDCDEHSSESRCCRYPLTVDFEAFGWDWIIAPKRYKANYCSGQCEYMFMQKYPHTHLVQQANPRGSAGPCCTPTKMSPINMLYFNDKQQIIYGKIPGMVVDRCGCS
Procedure: as §1

BMP2, sequence (P12643 283-396 limits assumed): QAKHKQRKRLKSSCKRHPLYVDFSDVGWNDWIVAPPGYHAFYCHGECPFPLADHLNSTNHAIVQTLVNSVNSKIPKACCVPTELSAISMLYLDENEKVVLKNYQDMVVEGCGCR

B1: single-arm ALK3-Fc heterodimeric complex (Fc fusion)
chain 1: GAQNLDSMLHGTGMKSDSDQKKSENGVTLAPEDTLPFLKCYCSGHCPDDAINNTCITNGHCFAIIEEDDQGETTLASGCMKYEGSDFQCKDSPKAQLRRTIECCRTNLCNQYLQPTLPPVVIGPFFDGSIRTGGGTHTCPPCPAPELLGGPSVFLFPPKPKDTLMISRTPEVTCVVVDVSHEDPEVKFNWYVDGVEVHNAKTKPREEQYNSTYRVVSVLTVLHQDWLNGKEYKCKVSNKALPAPIEKTISKAKGQPREPQVYTLPPSREEMTKNQVSLTCLVKGFYPSDIAVEWESNGQPENNYDTTPPVLDSDGSFFLYSDLTVDKSRWQQGNVFSCSVMHEALHNHYTQKSLSLSPG
chain 2: SNTKVDKRVTGGGTHTCPPCPAPELLGGPSVFLFPPKPKDTLMISRTPEVTCVVVDVSHEDPEVKFNWYVDGVEVHNAKTKPREEQYNSTYRVVSVLTVLHQDWLNGKEYKCKVSNKALPAPIEKTISKAKGQPREPQVYTLPPSRKEMTKNQVSLTCLVKGFYPSDIAVEWESNGQPENNYKTTPPVLKSDGSFFLYSKLTVDKSRWQQGNVFSCSVMHEALHNHYTQKSLSLSPGK
notes: also called ALK3-Fc:Fc heterodimer
Question: Does B1 bind (Activin A)?
Answer: no binding

Question: Does B1 bind (Activin B)?
Answer: no binding

Question: Does B1 bind (Activin AB)?
Answer: no binding

Question: Does B1 bind (Activin AC)?
Answer: no binding

Question: What about the Kd (BMP2) of the same binder?
Answer: 0.31 nM

Question: And the koff (BMP2)?
Answer: 0.00025 s⁻¹

Question: What about the kon (BMP2) of the same binder?
Answer: 790000 M⁻¹ s⁻¹

Question: What about the Kd (BMP4) of the same binder?
Answer: 0.093 nM

Question: And the koff (BMP4)?
Answer: 4.6e-05 s⁻¹

Question: What about the kon (BMP4) of the same binder?
Answer: 490000 M⁻¹ s⁻¹

Question: And the Kd (BMP5)?
Answer: 45 nM

Question: What about the koff (BMP5) of the same binder?
Answer: 0.0053 s⁻¹

Question: What about the kon (BMP5) of the same binder?
Answer: 120000 M⁻¹ s⁻¹

Question: Does B1 bind (BMP6)?
Answer: no binding

Question: Does B1 bind (BMP7)?
Answer: no binding

Question: Does B1 bind (BMP10)?
Answer: no binding

Question: Does B1 bind (GDF5)?
Answer: no binding

Question: Does B1 bind (GDF6)?
Answer: no binding

Question: What about the Kd (GDF7) of the same binder?
Answer: 22 nM

Question: What about the koff (GDF7) of the same binder?
Answer: 0.01 s⁻¹

Question: And the kon (GDF7)?
Answer: 460000 M⁻¹ s⁻¹

Question: Does B1 bind (GDF8)?
Answer: no binding

Question: Does B1 bind (GDF11)?
Answer: no binding
